{
  "source": "patent US20170082609A1",
  "key": {"[1]": {"target": "CDHR3 Cys529→Tyr variant (human) (UniProt Q6ZTQ4)", "sequence (Q6ZTQ4 other isoform, or with tags, fused parts or gaps mutant)": "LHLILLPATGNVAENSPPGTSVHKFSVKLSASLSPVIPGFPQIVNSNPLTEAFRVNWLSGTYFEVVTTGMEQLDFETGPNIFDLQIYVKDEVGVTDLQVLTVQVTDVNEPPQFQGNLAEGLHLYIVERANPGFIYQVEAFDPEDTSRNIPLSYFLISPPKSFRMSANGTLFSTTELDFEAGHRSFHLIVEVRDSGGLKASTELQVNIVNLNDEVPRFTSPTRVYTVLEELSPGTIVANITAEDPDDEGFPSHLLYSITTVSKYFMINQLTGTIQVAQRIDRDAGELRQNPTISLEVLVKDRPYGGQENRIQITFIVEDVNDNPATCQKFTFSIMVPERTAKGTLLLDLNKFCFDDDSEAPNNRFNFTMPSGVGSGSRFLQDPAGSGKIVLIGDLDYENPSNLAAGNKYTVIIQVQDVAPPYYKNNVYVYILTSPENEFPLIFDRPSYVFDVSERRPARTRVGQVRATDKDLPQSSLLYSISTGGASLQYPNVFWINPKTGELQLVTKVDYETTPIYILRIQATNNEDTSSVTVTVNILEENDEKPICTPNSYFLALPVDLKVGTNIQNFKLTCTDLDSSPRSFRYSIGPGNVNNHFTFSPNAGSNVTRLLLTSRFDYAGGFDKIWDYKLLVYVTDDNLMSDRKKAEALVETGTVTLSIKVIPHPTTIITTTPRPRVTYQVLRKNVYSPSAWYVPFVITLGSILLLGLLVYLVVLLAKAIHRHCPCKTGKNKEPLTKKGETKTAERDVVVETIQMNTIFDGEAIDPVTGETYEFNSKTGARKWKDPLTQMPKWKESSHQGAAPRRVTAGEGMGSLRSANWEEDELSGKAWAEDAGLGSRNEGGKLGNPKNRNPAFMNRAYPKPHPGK", "assay": "cell-based or functional assay"}, "[2]": {"target": "CDHR3 Cys529→Tyr variant (human) (UniProt Q6ZTQ4)", "assay": "virus bound to HeLa-E8 cells 2 h p.i., viral RNA by real-time PCR"}, "[3]": {"target": "CDHR3 Cys529→Tyr variant (human) (UniProt Q6ZTQ4)", "assay": "virus bound to HeLa-E8 monolayers, viral RNA by real-time PCR"}},
  "data": [
    {"substance": "HeLa-E8 adapted RV-C15 (RV-C15a)", "values": [
      {"measurement": "replication in HeLa-E8 compared to control HeLa cells (orders of magnitude)", "setting": "[1]", "value": 2},
      {"measurement": "binding compared to that of RV-C15-wt", "setting": "[2]", "value": "> 1", "unit": "log"},
      {"measurement": "fold increase of virus binding against the parental isolate", "setting": "[3]", "value": "> 10", "unit": "fold"}
    ]}
  ]
}
